Source: US10921324B2, “Compositions and methods related to the methylation of histone H1.0 protein” (Aelan Cell Technologies, Inc., priority 2016, dated 2021)
Ends that are not written are not given here.

Target: T1, GLP methyltransferase (Homo sapiens, UniProt Q9H9B1)
T1 construct: purchased Cayman Chemical 10755
T1 sequence (Q9H9B1 1-1298): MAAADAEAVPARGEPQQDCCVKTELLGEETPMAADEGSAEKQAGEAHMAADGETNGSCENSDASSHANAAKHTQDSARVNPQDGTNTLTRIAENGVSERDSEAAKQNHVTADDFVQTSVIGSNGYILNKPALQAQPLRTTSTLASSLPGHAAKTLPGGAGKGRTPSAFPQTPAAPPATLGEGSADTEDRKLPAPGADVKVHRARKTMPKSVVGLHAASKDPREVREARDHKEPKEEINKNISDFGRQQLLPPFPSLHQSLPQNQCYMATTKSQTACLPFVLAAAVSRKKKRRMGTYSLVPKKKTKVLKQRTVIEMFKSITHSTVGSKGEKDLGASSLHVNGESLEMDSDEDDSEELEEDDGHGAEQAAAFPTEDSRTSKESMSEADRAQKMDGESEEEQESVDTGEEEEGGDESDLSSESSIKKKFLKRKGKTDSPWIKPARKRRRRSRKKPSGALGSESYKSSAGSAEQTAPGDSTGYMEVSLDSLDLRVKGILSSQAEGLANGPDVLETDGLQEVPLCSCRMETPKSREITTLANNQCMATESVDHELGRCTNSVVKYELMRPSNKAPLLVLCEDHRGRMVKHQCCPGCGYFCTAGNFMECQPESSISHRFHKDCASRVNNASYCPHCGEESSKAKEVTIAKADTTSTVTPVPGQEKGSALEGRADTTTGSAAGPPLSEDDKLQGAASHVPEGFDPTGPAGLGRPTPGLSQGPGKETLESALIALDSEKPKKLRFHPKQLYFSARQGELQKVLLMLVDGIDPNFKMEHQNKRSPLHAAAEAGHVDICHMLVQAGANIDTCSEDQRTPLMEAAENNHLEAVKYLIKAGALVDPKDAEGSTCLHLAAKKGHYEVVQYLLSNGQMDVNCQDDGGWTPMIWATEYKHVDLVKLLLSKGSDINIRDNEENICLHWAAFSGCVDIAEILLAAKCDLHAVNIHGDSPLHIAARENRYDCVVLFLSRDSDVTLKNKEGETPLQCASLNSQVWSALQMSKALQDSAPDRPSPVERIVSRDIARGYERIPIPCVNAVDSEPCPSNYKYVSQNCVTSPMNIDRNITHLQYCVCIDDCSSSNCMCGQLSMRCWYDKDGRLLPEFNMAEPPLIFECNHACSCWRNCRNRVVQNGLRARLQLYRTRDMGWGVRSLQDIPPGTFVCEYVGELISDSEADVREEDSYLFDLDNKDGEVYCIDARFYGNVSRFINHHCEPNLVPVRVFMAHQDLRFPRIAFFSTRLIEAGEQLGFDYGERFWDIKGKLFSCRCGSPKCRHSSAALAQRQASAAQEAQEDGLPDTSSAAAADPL
Assay: In vitro methylation of unmodified H1.0 peptide with GLP, products by LC-MS
Format: biochemical
Details: LC-MS spectral counts; 10U GLP, 3.2 mM S-Adenosyl-L-Methionine, 37° C. 1 hour
Description: In order to identify the precise sites of methylation by G9A and GLP methyltransferases on histone H1.0, in vitro methylation assays were performed and subsequently analyzed by Liquid Chromatography and High-resolution Mass Spectrometry (LC-MS) analysis. Methylation reactions were set up using either G9A methyltransferase (NEB, M0235S, Lot #0031201) or GLP methyltransferase (Cayman Chemical, 10755). The methyl donor in each reaction was unlabeled S-Adenosyl-L-Methionine (NEB, B9003S). […]
For the Liquid Chromatography and High-resolution Mass Spectrometry (LC-MS) analysis, samples were prepared as described above and about 1 μg o the product was injected onto a Thermo Scientific Easy nLC system configured with a 10 cm×100 um trap column and a 25 cm×100 um ID resolving column. […] This ensured optimal full-scan data for quantification. […]
Protein identification was performed using Thermo Scientific Proteome Discoverer version 1.4 (including Sequest and Percolator algorithms) using RefSeqHuman sequence database. […] Protein quantification was performed using Pinpoint version 1.4 software. The Pinpoint quantification workflow included importing the Proteome Discoverer .msf files as spectral libraries. Identified peptides were subsequently quantified in MS .raw files using the Pinpoint peak finding, chromatographic alignment and area calculation algorithms. […]

H1.0K180 dimethylated, % of all peptides: 96.6%
Sequence: AKPVKASKPKKAKPVKPK (not fully specified (N-terminus); listed as Homo sapiens) [unmethylated H1.0 peptide, unmodified H1.0 peptide substrate for in vitro methylation]
